One may read the stoichiometry N as a count of units in the complex or per binding partner.

The source of these data is publication PMC4701952, “Evolution of the Plant Reproduction Master Regulators LFY and the MADS Transcription Factors: The Role of Protein Structure in the Evolutionary Development of the Flower” (Frontiers in Plant Science, 2015).

Values joined by “and” are separate entries in the source; they are usually repeats but may differ in a detail not shown here. Equal values may be shown once.

Series [1] concerns the molecule itself. Nature of the series: SEC; Superdex 200 10/300 GL in Buffer A (30 mM Tris pH 8.0, 300 mM NaCl, 5% glycerol, 2 mM TCEP); oligomeric state against the wild type protein; self-association. For orientation: SEC sorts molecules by how far they enter the pores of the column.
Series [2] deals with the molecule itself. Nature of the series: native gel or EMSA; in vitro translated proteins (4 ul TnT mix, not purified) with 5-10 nM DY-682 labelled 121 bp SOC1 promoter DNA with two CArG boxes; complexes seen on DNA, assigned as putative dimer and tetramer. For orientation: Mobility shift assays separate free from complexed probe on a gel.
Series [3] concerns the molecule itself. Nature of the series: native gel or EMSA; in vitro translated proteins (not purified) with Cy5 labelled SOC1 promoter DNA in which CArG box 1 or CArG box 2 is mutated (one site left).

B1: SEP3^(75-178) construct (wild type) (domain or fragment, A. thaliana, UniProt O22456 75-178, looked up)
chain: YGAPEPNVPSREALAVELSSQQEYLKLKERYDALQRTQRNLLGEDLGPLSTKELESLERQLDSSLKQIRALRTQFMLDQLNDLQSKERMLTETNKTLRLRLADG
notes: cloned into pESPRIT002 (N-terminal 6x-His tag followed by a TEV site); also called SEP3 K-domain; oligomerisation domain of SEP3; source: E. coli BL21 (DE3) CodonPlusRIL, purified (Ni-Sepharose, TEV cleavage, Superdex 200 SEC); not shown: His6, N-terminal, cleaved
Regarding B1, in series [1], the “stoichiometry N” value is 4 and 2.

B2: SEP3^(75-178) L135A (domain or fragment, A. thaliana, UniProt O22456 75-178, looked up)
chain: YGAPEPNVPSREALAVELSSQQEYLKLKERYDALQRTQRNLLGEDLGPLSTKELESLERQADSSLKQIRALRTQFMLDQLNDLQSKERMLTETNKTLRLRLADG
notes: made with SEP3^(75-178) as the template; source: E. coli Rosetta2 (DE3) pLysS, purified (Ni-Sepharose, TEV cleavage, Superdex 200 SEC); not shown: His6, N-terminal, cleaved
With B2, the binding result in series [1] is reported as “binds”.

B3: SEP3^(75-178) Y105N (domain or fragment, A. thaliana, UniProt O22456 75-178, looked up)
chain: YGAPEPNVPSREALAVELSSQQEYLKLKERNDALQRTQRNLLGEDLGPLSTKELESLERQLDSSLKQIRALRTQFMLDQLNDLQSKERMLTETNKTLRLRLADG
notes: as for B2
Turning to B3, the “stoichiometry N” value in series [1] worked out at 4.

B4: SEP3^(75-178) Y98K (domain or fragment, A. thaliana, UniProt O22456 75-178, looked up)
chain: YGAPEPNVPSREALAVELSSQQEKLKLKERYDALQRTQRNLLGEDLGPLSTKELESLERQLDSSLKQIRALRTQFMLDQLNDLQSKERMLTETNKTLRLRLADG
notes: as for B2
Consider B4, for which the “stoichiometry N” value in series [1] turned out to be 2.

B5: SEP3^(75-178) L115R (domain or fragment, A. thaliana, UniProt O22456 75-178, looked up)
chain: YGAPEPNVPSREALAVELSSQQEYLKLKERYDALQRTQRNRLGEDLGPLSTKELESLERQLDSSLKQIRALRTQFMLDQLNDLQSKERMLTETNKTLRLRLADG
notes: as for B2
As for B5, in series [1], the binding result was “binds”.

B6: SEP3^(75-178) L131V (domain or fragment, A. thaliana, UniProt O22456 75-178, looked up)
chain: YGAPEPNVPSREALAVELSSQQEYLKLKERYDALQRTQRNLLGEDLGPLSTKELESVERQLDSSLKQIRALRTQFMLDQLNDLQSKERMLTETNKTLRLRLADG
notes: as for B2
With B6, the binding result in series [1] is “binds”.

B7: SEP3^(75-178) L135M (domain or fragment, A. thaliana, UniProt O22456 75-178, looked up)
chain: YGAPEPNVPSREALAVELSSQQEYLKLKERYDALQRTQRNLLGEDLGPLSTKELESLERQMDSSLKQIRALRTQFMLDQLNDLQSKERMLTETNKTLRLRLADG
notes: as for B2
Consider B7, for which the “stoichiometry N” value in series [1] turned out to be 2.

B8: SEP3^L115R (natural protein, A. thaliana, UniProt O22456 1-251, looked up)
chain: MGRGRVELKRIENKINRQVTFAKRRNGLLKKAYELSVLCDAEVALIIFSNRGKLYEFCSSSSMLRTLERYQKCNYGAPEPNVPSREALAVELSSQQEYLKLKERYDALQRTQRNRLGEDLGPLSTKELESLERQLDSSLKQIRALRTQFMLDQLNDLQSKERMLTETNKTLRLRLADGYQMPLQLNPNQEEVDHYGRHHHQQQQHSQAFFQPLECEPILQIGYQGQQDGMGAGPSVNNYMLGWLPYDTNSI
notes: also called dimerisation-interface mutant; source: in vitro translated (pSPUTK, Promega SP6 High Yield Expression System), used without further purification
For the protein B8, the “stoichiometry N” value in series [2] was 2.

B9: SEP3^L171A (natural protein, A. thaliana, UniProt O22456 1-251, looked up)
chain: MGRGRVELKRIENKINRQVTFAKRRNGLLKKAYELSVLCDAEVALIIFSNRGKLYEFCSSSSMLRTLERYQKCNYGAPEPNVPSREALAVELSSQQEYLKLKERYDALQRTQRNLLGEDLGPLSTKELESLERQLDSSLKQIRALRTQFMLDQLNDLQSKERMLTETNKTARLRLADGYQMPLQLNPNQEEVDHYGRHHHQQQQHSQAFFQPLECEPILQIGYQGQQDGMGAGPSVNNYMLGWLPYDTNSI
notes: also called tetramerisation interface mutant; source: in vitro translated (pSPUTK, Promega SP6 High Yield Expression System), used without further purification
As to B9, the “stoichiometry N” value in series [3] stood at 4.

B10: SEP3^ΔC (domain or fragment, A. thaliana)
chain: MGRGRVELKRIENKINRQVTFAKRRNGLLKKAYELSVLCDAEVALIIFSNRGKLYEFCSSSSMLRTLERYQKCNYGAPEPNVPSREALAVELSSQQEYLKLKERYDALQRTQRNLLGEDLGPLSTKELESLERQLDSSLKQIRALRTQFMLDQLNDLQSKLADG
notes: also called SEP3 truncation mutant; source: in vitro translated (pSPUTK, Promega SP6 High Yield Expression System), used without further purification
Turning to B10, the “stoichiometry N” value in series [2] worked out at 2.
